Experimental findings from article PMC7688234, “Salt Stress Response of Sulfolobus acidocaldarius Involves Complex Trehalose Metabolism Utilizing a Novel Trehalose-6-Phosphate Synthase (TPS)/Trehalose-6-Phosphate Phosphatase (TPP) Pathway” (Applied and Environmental Microbiology, 2020) are described below.

Data set [1] deals with the molecule itself. The experiment in a line: SEC; gel filtration under native conditions against SDS-PAGE under denaturing conditions; Superdex 200 HiLoad 26/60, 30 mM Tris-300 mM NaCl, pH 7.
Substrate in data set [2]: O=c1ccn([C@@H]2O[C@H](CO[P@@](=O)(O)O[P@@](=O)(O)O[C@H]3O[C@H](CO)[C@@H](O)[C@H](O)[C@H]3O)[C@@H](O)[C@H]2O)c(=O)[nH]1
The experiment in a line: purified protein. The data set is classed as biochemical, Sulfolobus acidocaldarius. The conditions noted are these: glycosyl donor, G6P as acceptor (standard 10 mM), 10 mM MgCl2, 50 mM HEPES-KOH pH 7, 55°C.

Substrate in data set [3]: Nc1ncnc2c1ncn2[C@@H]1O[C@H](COP(=O)(O)OP(=O)(O)O[C@H]2O[C@H](CO)[C@@H](O)[C@H](O)[C@H]2O)[C@@H](O)[C@H]1O
The experiment in a line: purified protein. It is filed as biochemical, Sulfolobus acidocaldarius. To be noted: glycosyl donor, G6P as acceptor (standard 10 mM), 10 mM MgCl2, 50 mM HEPES-KOH pH 7, 55°C.

B1: trehalose-6-phosphate synthase (TPS, Saci_1249) of Sulfolobus acidocaldarius (enzyme, UniProt Q4J9D6 1-444, looked up)
chain: MFSVSISTQTPPVRFRYTYRDLMDKYGFFELPIELSQLDSSDYYFSVGGVPKMMLSLINKFNKVRWVSLGPGYPPQVKYGDQRLFDFIDLDPENLKNYTRYKEGIYNESHGIEKYEIKPSEYISYADYNWISAKKLLEFHNDSDVYFINDFQLLLVGGIIGPSAPAILWYHIPFVPENLSPRIRDFIVRSFEGYDYVILSTKRDLEGLLRIGAKINARQVYPFIDTSTLRRGSKGEVDKVKSKYNIGKDEKVITVVARMDPMKSQDVAIMALKKIKESNAKLLLVGNGSFTSGALGTNKAGNWVRKLQSLASNLGVDKKVVFTGHVSDEELNAIYEASDVIVLPSRIEGFGLVVCEGWFFEKPAIVSSGAGVSELVIDGSNGFVFKSGNYEELAEKIDIVLKEPDKYSRLSRDTVNKCNVEYAFNQLKDIFAQAMKDYGKNVNL
notes: Trehalose-6-phosphate synthase TPS (Saci_1249), Sulfolobus acidocaldarius; gene of 1,335 bp encoding 444 amino acids, calculated mass 50.3 kDa; amplified from genomic DNA with primers that run from the start codon to the stop codon, cloned into pET15b; The N-terminal His tag comes from pET15b; also called GT4-like TPS; source: E. coli BL21(DE3)-CodonPlus, purified …
The term stoichiometry N denotes the number of molecules, sites or subunits per partner or assembly. For orientation: Km means the concentration of substrate that gives half-maximal velocity. As a reminder, the kcat is the maximal rate divided by the concentration of active sites. In the case of B1, the “stoichiometry N” value in data set [1] was determined as 2. For the same protein, in the data set “purified protein [2]”, the Km was determined as 3800 µM and the kcat is 4.9 s⁻¹. For the same protein, the Km in the data set “purified protein [3]” amounted to 1800 µM.
